The text below walks through data of paper PMC2921341, “Interaction of Serum- and Glucocorticoid Regulated Kinase 1 (SGK1) with the WW-Domains of Nedd4-2 Is Required for Epithelial Sodium Channel Regulation” (PLoS ONE, 2010).

Experiment [1] relates to ENaC. Put plainly: Amiloride-sensitive short circuit current in FRT epithelia with ENaC: Nedd4-2 dose response with SGK, SGKY298A or GFP. The experiment is classed as cell-based. Particulars: for effect on Nedd4-2 dose-response relationship for ENaC inhibition (in words): FRT epithelia with α-, β-, γENaC, 0.6 µg SGK construct, Nedd4-2 0–0.2 µg, amiloride 10 µM, n = 18. On the procedure: To test the hypothesis that the interaction of the Nedd4-2 WW-domains with the SGK PY motif is required for SGK to influence Nedd4-2 function, we co-expressed α-, β- and γENaC in FRT epithelia with either wild type SGK or SGKY298A along with increasing amounts of Nedd4-2, and measured the amiloride-sensitive short circuit current.
Figure 4 The SGK PY motif is necessary for SGK to inhibit Nedd4-2. Amiloride-sensitive short-circuit sodium current (relative to 0 µg of Nedd4-2) in FRT cells 48 hr after transfection with α-, β- and γENaC and SGK (closed circles) or SGKY298A (open circles) or GFP (closed squares), in the presence of increasing amounts of Nedd4-2, n = 18. Nedd4-2 is expressed as a fraction of the amount of ENaC cDNA. Expression of SGK and SGKY298A was reported in Figure 1B of Snyder et al..
Fischer rat thyroid (FRT) cells were grown on permeable filter supports (Snapwell™, Corning USA or Millicell PCF, both with […] pore size, 12 mm diameter) in F-12 Coon's media with 5% fetal calf serum (Sigma), 100 U/ml penicillin, and 100 µg/ml streptomycin at 37°C. One day after seeding, cells were cotransfected with α-, β- and γENaC (0.07 µg each), 0.6 µg wildtype or mutant SGK, and 0–0.2 µg Nedd4-2 (Fig. 4 only). Total DNA was held constant (1 µg/millicell) using cloning vector DNA. The plasmids were mixed with Lipofectamine 2000 (Invitrogen) or TFX 50 (Promega, Madison, WI; 7.9 µg/millicell) in serum free F12 Coon's media for 15 minutes and transferred to the apical surface of the monolayer. One-six hours later, the apical media was replaced with F-12 Coon's media containing 5% fetal calf serum and amiloride (10 µM). Short-circuit current was measured […] after transfection in modified Ussing chambers connected to a voltage clamp (South Campus Electronics, Dunedin, New Zealand or Warner Instruments). The apical and basolateral surfaces were bathed in (in mM) 135 NaCl, 1.2 CaCl2, 1.2 MgCl2, 2.4 K2HPO4, 0.6 KH2PO4, 10 HEPES, pH 7.4, at 37°C and bubbled with O2. Amiloride-sensitive short-circuit current (Isc-amiloride) was determined as the difference in current with and without amiloride (10 µM) in the apical bathing solution. Data are presented as relative Isc-amiloride (Isc-amiloride relative) that was obtained by normalizing the Isc-amiloride to that of control cells transfected with αβγENaC in the same experiment. Transepithelial resistance (Rt) was monitored by applying repetitive voltage potential pulses (5 mV for 1 sec at 120 sec intervals) across the epithelium.

Experiment [2] concerns Nedd4-2. The settings on record: previous work; ref [19]; cited from earlier work. The text has this:
There has been debate in the literature over detection of an interaction between SGK and Nedd4-2 in vitro, and the interaction is currently not understood at the molecular level. SGK contains a PY motif (PPFY), which might mediate interaction with the WW-domains of Nedd4/Nedd4-2. […] Two previous in vitro binding studies have asked whether the WW-domains of Nedd4-2 interact with an SGK peptide containing the PY motif. […] To test the hypothesis that the interaction of the Nedd4-2 WW-domains with the SGK PY motif is required for SGK to influence Nedd4-2 function, we co-expressed α-, β- and γENaC in FRT epithelia with either wild type SGK or SGKY298A along with increasing amounts of Nedd4-2, and measured the amiloride-sensitive short circuit current. Consistent with our previous work, we fo ...

Experiment [3] deals with Nedd4-2. Particulars: SGK lacking its PY motif; ref [20]; cited from earlier work.
The next experiment relates to Nedd4. The settings on record: in vitro studies; ref [19]; cited from earlier work. From the text: There has been debate in the literature over detection of an interaction between SGK and Nedd4-2 in vitro, and the interaction is currently not understood at the molecular level. SGK contains a PY motif (PPFY), which might mediate interaction with the WW-domains of Nedd4/Nedd4-2. […] Two previous in vitro binding studies have asked whether the WW-domains of Nedd4-2 interact with an SGK peptide containing the PY motif. One study used surface plasmon resonance and ...

The test system of experiment [4] is ENaC. Put plainly: Amiloride-sensitive short circuit current in FRT epithelia transfected with α-, β- and γENaC. The experiment is classed as cell-based. Particulars: serum-containing and serum-free media gave similar results, amiloride 10 µM, n = 4. On the procedure: (§1) SGK is activated by phosphorylation, via a phosphatidylinositide 3-kinase (PI3K)-dependent pathway, and SGK is then able to phosphorylate substrates such as Nedd4-2. Although we were able to detect interaction of Nedd4-2 WW-domains with wildtype SGK (Fig. 1B, C), we hypothesized that an activated form of SGK might have a higher affinity for Nedd4-2. Therefore GST interaction experiments were performed comparing the binding of wildtype SGK and activated SGK (SGKS422D) to isolated Nedd4-2 WW-domains. SGKS422D appeared to run more slowly compared to SGK, consistent with it representing a phosphorylated form of SGK [8]. […] To ask if SGKS422D has an altered effect on Na^+ transport, we measured the amiloride-sensitive short circuit current in Fischer rat thyroid (FRT) epithelia transfected with α-, β-, and γENaC and either wildtype or activated SGK (Fig. 3C). […] Instead, increased binding of SGKS422D to Nedd4-2 may be a factor in the improved ability of SGKS422D to increase amiloride-sensitive current.
(§2) Figure 3 SGKS422D binding to Nedd4-2 and stimulation of ENaC is enhanced compared to wildtype SGK. (A) SGK-FLAG or SGKS422D-FLAG were expressed in COS7 cells. […] After washing the beads, the bound proteins were eluted and analyzed by SDS-PAGE and western blotting with anti-FLAG. […] (B) The resulting bands were quantified by densitometry and normalized to total expression of either SGK or SGKS422D. […]

Another experiment deals with GST. Put plainly: GST interaction experiments, GST alone (control). The experiment is classed as binding. The settings on record: GST pulldown control, COS7 lysates, Fig. 3A. Here is the method:
as §1, §2

For a further experiment, the system named is Nedd4-2 WW-domains. Briefly: GST interaction experiments, wildtype versus activated SGK on Nedd4-2 WW-domains. The experiment is classed as binding, human. Particulars: GST pulldown with 50 µg WW2, WW3 or WW2–3 fusion, COS7 lysates, densitometry normalized to expression; n = 9 for WW2 and WW3, n = 6 for WW2–3. Here is the method: as §1, §2

B1: SGKY298A: SGK that contains a mutated PY motif (protein)
chain: MTVKTEAAKGTLTYSRMRGMVAILIAFMKQRRMGLNDFIQKIANNSYACKHPEVQSILKISQPQEPELMNANPSPPPSPSQQINLGPSSNPHAKPSDFHFLKVIGKGSFGKVLLARHKAEEVFYAVKVLQKKAILKKKEEKHIMSERNVLLKNVKHPFLVGLHFSFQTADKLYFVLDYINGGELFYHLQRERCFLEPRARFYAAEIASALGYLHSLNIVYRDLKPENILLDSQGHIVLTDFGLCKENIEHNSTTSTFCGTPEYLAPEVLHKQPYDRTVDWWCLGAVLYEMLYGLPPFASRNTAEMYDNILNKPLQLKPNITNSARHLLEGLLQKDRTKRLGAKDDFMEIKSHVFFSLINWDDLINKKITPPFNPNVSGPNDLRHFDPEFTEEPVPNSIGKSPDSVLVTASVKEAAEAFLGFSYAPPTDSFL
modifications: left off: FLAG, end not stated, state not stated
notes: SGK that contains a mutated PY motif
In the case of B1, the “stimulation of ENaC in the presence of Nedd4-2 (in words)” value with ENaC [1] (FRT epithelia with ENaC and Nedd4-2) is “failed to stimulate ENaC activity in the presence of Nedd4-2”. Also, in the experiment on ENaC [1], the “effect on Nedd4-2 dose-response relationship for ENaC inhibition (in words)” value is reported as “had no effect on the Nedd4-2 dose-response relationship”. Also, the “binding to full length Nedd4-2 (in words)” value in the experiment on Nedd4-2 [2] is listed as “not able to bind full length Nedd4-2”. The “phosphorylation of Nedd4-2 (in words)” value in the experiment with Nedd4-2 [3] is “less able to phosphorylate Nedd4-2”.

B2: SGK: Serum- and Glucocorticoid regulated Kinase isoform 1 (protein, UniProt O00141 1-431, looked up)
Serine/threonine-protein …: MTVKTEAAKGTLTYSRMRGMVAILIAFMKQRRMGLNDFIQKIANNSYACKHPEVQSILKISQPQEPELMNANPSPPPSPSQQINLGPSSNPHAKPSDFHFLKVIGKGSFGKVLLARHKAEEVFYAVKVLQKKAILKKKEEKHIMSERNVLLKNVKHPFLVGLHFSFQTADKLYFVLDYINGGELFYHLQRERCFLEPRARFYAAEIASALGYLHSLNIVYRDLKPENILLDSQGHIVLTDFGLCKENIEHNSTTSTFCGTPEYLAPEVLHKQPYDRTVDWWCLGAVLYEMLYGLPPFYSRNTAEMYDNILNKPLQLKPNITNSARHLLEGLLQKDRTKRLGAKDDFMEIKSHVFFSLINWDDLINKKITPPFNPNVSGPNDLRHFDPEFTEEPVPNSIGKSPDSVLVTASVKEAAEAFLGFSYAPPTDSFL
On to B2, for which the “effect on Nedd4-2 dose-response relationship for ENaC inhibition (in words)” value in the experiment on ENaC [1] is “reduced inhibition, shifting the dose-response relationship to the right”. Besides, in the experiment on Nedd4-2 [2], the “binding to full length Nedd4-2 (in words)” value is “Nedd4 and Nedd4-2 interact with wildtype SGK”. For the same molecule, the “interaction with Nedd4 (in words)” value in the experiment on Nedd4 was “Nedd4 and Nedd4-2 interact with wildtype SGK”. Further, the “effect on amiloride-sensitive short circuit current, Isc-amiloride (in words)” value in the experiment with ENaC [4] was “stimulated Isc-amiloride significantly”.

B3: SGKS422D: activated SGK; mutation of one of two phosphorylation sites (protein)
chain: MTVKTEAAKGTLTYSRMRGMVAILIAFMKQRRMGLNDFIQKIANNSYACKHPEVQSILKISQPQEPELMNANPSPPPSPSQQINLGPSSNPHAKPSDFHFLKVIGKGSFGKVLLARHKAEEVFYAVKVLQKKAILKKKEEKHIMSERNVLLKNVKHPFLVGLHFSFQTADKLYFVLDYINGGELFYHLQRERCFLEPRARFYAAEIASALGYLHSLNIVYRDLKPENILLDSQGHIVLTDFGLCKENIEHNSTTSTFCGTPEYLAPEVLHKQPYDRTVDWWCLGAVLYEMLYGLPPFYSRNTAEMYDNILNKPLQLKPNITNSARHLLEGLLQKDRTKRLGAKDDFMEIKSHVFFSLINWDDLINKKITPPFNPNVSGPNDLRHFDPEFTEEPVPNSIGKSPDSVLVTASVKEAAEAFLGFDYAPPTDSFL
modifications: left off: FLAG, C-terminal, kept
notes: mutation of one of two phosphorylation sites
Turning to B3, the “binding to GST alone (in words)” value in the experiment with GST is on record as “did not bind to GST alone”. Further, the “binding to Nedd4-2 WW-domains compared with wildtype SGK (in words)” value in the experiment on Nedd4-2 WW-domains is recorded as “binds Nedd4-2 WW-domains more strongly than SGK”. Besides, the “effect on amiloride-sensitive short circuit current, Isc-amiloride (in words)” value with ENaC [4] is recorded as “greater stimulatory effect on Isc-amiloride compared to SGK”.
